Measurements reported in the supplement of paper PMC10724198.
± gives the standard deviation of the averaged measurements.

Experiments:
Saccharomyces cerevisiae [1] = experiment: protein stability index of tFT-peptide fusion (C-terminal peptide) (PSI (0-1 scale)); higher = more stable (slower turnover); details: genetic background: wild type; temperature: 30 C
Saccharomyces cerevisiae [2] = experiment: as above
Experimental: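 MPS profiling in S. cerevisiae of the tFT-X12 degron library: putative degron peptides plus stable controls, 12 aa, fused to the C-terminus of a sfGFP-mCherry timer. Cells are FACS-sorted into 8 mCherry/sfGFP bins and deep-sequenced. PSI runs from 0 (unstable) to 1 (stable). Backgrounds are wild type, das1Δ and doa10Δ at 30 °C, and wild type, das1Δ, cdc34-1 and cdc53-1 at 37 °C; 2-3 technical replicates each.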

[3] = genetic background: cdc34-1, temperature: 37 C
[4] = genetic background: cdc53-1, temperature: 37 C
[5] = genetic background: das1 deletion, temperature: 30 C
[6] = genetic background: das1 deletion, temperature: 37 C
[7] = genetic background: doa10 deletion, temperature: 30 C
[8] = genetic background: wild type, temperature: 30 C
[9] = genetic background: wild type, temperature: 37 C
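Note: PSI is a weighted mean of sequencing reads over stability bins, variants kept only with over 10 reads, mCherry proximal and sfGFP distal, peptide attached via GGGS linker.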

Sequence	protein stability index (Saccharomyces cerevisiae [1])	protein stability index (Saccharomyces cerevisiae [2]; [3])	protein stability index (Saccharomyces cerevisiae [2]; [4])	protein stability index (Saccharomyces cerevisiae [2]; [5])	protein stability index (Saccharomyces cerevisiae [2]; [6])	protein stability index (Saccharomyces cerevisiae [2]; [7])	protein stability index (Saccharomyces cerevisiae [2]; [8])	protein stability index (Saccharomyces cerevisiae [2]; [9])
SRGRVLRLLLLV	0.124 ± 0.0028	0.303 ± 0.0055	0.428 ± 0.013	0.393 ± 0.025	0.524 ± 0.0093	0.0727 ± 0.011	0.0574 ± 0.026	0.0678 ± 0.018
FFTLSTVKLLRV	0.508 ± 0.044	0.497 ± 0.025	0.521 ± 0.02	0.427 ± 0.022	0.552 ± 0.0087	0.385 ± 0.0046	0.412 ± 0.027	0.5379 ± 0.0018
PHGLKPHCPTPS	0.728 ± 0.02	0.685 ± 0.026	0.745 ± 0.021	0.654 ± 0.016	0.7368 ± 0.0034	0.674 ± 0.046	0.677 ± 0.01	0.73 ± 0.042
PPSLFLLLKVFF	0.3254 ± 0.0024	0.321 ± 0.0034	0.362 ± 0.012	0.279 ± 0.037	0.458 ± 0.005	0.268 ± 0.0069	0.223 ± 0.023	0.357 ± 0.0065
FTFPLPPSLLLV	0.347 ± 0.017	0.378 ± 0.023	0.389 ± 0.0036	0.322 ± 0.021	0.456 ± 0.011	0.2603 ± 0.00082	0.233 ± 0.028	0.37 ± 0.0071
VFFVTSCWVFRG	0.1794 ± 0.0015	0.416 ± 0.018	0.574 ± 0.019	0.432 ± 0.022	0.64 ± 0.022	0.0921 ± 0.02	0.109 ± 0.028	0.208 ± 0.029
VWRLCFPFALVR	0.194 ± 0.02	0.0577 ± 0.022	0.0537 ± 0.012	0.155 ± 0.025	0.18 ± 0.023	0.225 ± 0.0026	0.132 ± 0.025	0.1406 ± 0.00093
IFLLFPFSWRIF	0.446 ± 0.034	0.596 ± 0.042	0.6301 ± 0.0061	0.56 ± 0.039	0.694 ± 0.011	0.364 ± 0.027	0.376 ± 0.033	0.539 ± 0.036
LIFRLCVCGVFW	0.4101 ± 0.00073	0.516 ± 0.03	0.549 ± 0.015	0.468 ± 0.044	0.5218 ± 0.0011	0.278 ± 0.017	0.271 ± 0.032	0.376 ± 0.009
